From patent US20250145722A1 (TRUEBINDING, published 2025)
Residue numbers refer to the chain shown, from its start. Names may count otherwise.

B1: F846TC.14A2 (antibody, human IgG4 S228P, kappa, V domains shown)
VH: QIQLVQSGPELKKPGETVKISCKASGYTFTNYGMNWVKQAPGKGLKWMGWINTYTGEPTYAGDLKGRFAFSLETSASTAYLQINNLKNEDTATYFCVRYTMDYWGQGTSVTVSS
VL: QAVVTQESALTTSPGETVTLTCRSSTGAVTTSNYANWVQEKPDHLFTGLIGGINNRVPGVPARFSGSLIGDKAALTITGAQTEDEAIYFCALWYSNHWVFGGGTKLTVLR
notes: also called 846T.14A2; 846.14A2
B2: F847C.4B10 (antibody, human IgG4 S228P, kappa, V domains shown)
VH: EVQLVETGGGLVKPGGSLKLSCAASGFTFSSYAMSWVRQTPEKRLEWVASISSGGSTYYPDSVKGRFTISRDNARNILYLQMSSLRSEDTAMYYCTRFTTVVEMDYWGQGTSVTVSS
VL: B1 VL with I53T, V57A, W98L
B3: 19B5.2E6 (antibody, mouse IgG2a, V domains shown)
VH: QIQLVQSGPELKKPGETVKISCKASGYTFTTYAMSWVKQAPGKGLKWMGWINTYSGVPTYADDLKGRFAFSLETSASTAYLQINNLKNEDTATYFCARGPYAMDYWGQGTSVTVSS
VL: DIQMTQTTSSLSASLGDRVTISCSASQGINNYLNWYQQKPDGTVKLLIYYASSLHSGVPSRFSGSGSGTDYSLTISNLEPEDIATYYCQQYSQVPYTFGSGTKLEIKR
B4: 23H9.2E4 (antibody, V domains shown)
VH: B3 VH
VL: DIQMTQTTSSLSASLGDRVTISCSASQGINNYLNWYQQKPDGTVKLLIYYASSLHSGVPSRFSGSGSGTDYSLTISNLEPEDIATYYCQQYSQVPYTFGSGTKLEIK
B5: F846C.1F5 (antibody, human IgG4 S228P, kappa, V domains shown)
VH: QIQLVQSGPELKKPGETVKISCKASGYTFTNYGMNWVKQAPGKGLKWMGWINTYTGEPSYADDFKGRFAFSLETSASTAYLQINNLKNEDMATYFCARWGGYDGDYYAMDYWGQGTSVTVSS
VL: NIMMTQSPSSLAVSAGEKVTMSCKSSQSVLYSSNQKNYLAWYQQKPGQSPKLLIYWASTRESGVPDRFTGSGSGTDFTLTISSVQPEDLAVYYCHQYLSSLTFGAGTKLELKR
notes: also called 846.1F5
B6: F846TC.14E4 (antibody, human IgG4 S228P, kappa, V domains shown)
VH: QVTLKESGPGILQPSQTLSLTCSFSGFSLSTSGMGVGWIRQPSGKGLEWLAHIWWDDDKYYNTALKSGLTISKDASKNQVFLKIASMDTADTATYYCARNLYDGSYGYYAMDYWGQGTSVTVSS
VL: DIVMTQAAFSNPVTLGTSASISCRSSKSLLHTNGITFLYWYLQKPGQSPQPLIYQMSNLASGVPDRFSSSGSGTDFTLRISRVEAEDVGVYYCAQNLELPWTFGGGTKLEINR
notes: also called 846T.14E4
B7: F846C.2H3 (antibody, human IgG4 S228P, kappa, V domains shown)
VH: B5 VH
VL: B5 VL
notes: also called 846.2H3
B8: F846TC.16B5 (antibody, human IgG4 S228P, kappa, V domains shown)
VH: B5 VH with S59A
VL: B5 VL with P86A
notes: also called 846T.16B5
B9: F846C.1B2 (antibody, human IgG4 S228P, kappa, V domains shown)
VH: B5 VH with D103A, Y111F
VL: B5 VL with M3W, M4L, K18M, S22T, T78S, P86A
notes: also called 846.1B2
B10: F849C.8D10 (antibody, human IgG4 S228P, kappa, V domains shown)
VH: QVQLQQTGAELVKPGASVKLSCKASGYTFTSYWINWVKQRPGQGLEWIGNIYPGSSSIYYSEKFKSKATLTVDTSSSTAYMQLSSLTSDDSAVYYCARWGYWGQGTTLTVSS
VL: DVLMTQTPLSLPVSLGDQASISCRSSQDIVHSSGNTYLEWYLQKPGQSLKLLIYKVSNRFSGVPDRFSASGSGTDFTLKISRVEAEDLGVYYCFQGSHVPPTFGSGTKLEIKR
notes: also called 849.8D10
B11: recombinant human TGF-beta sRII/Fc (R&D Systems, 341-BR) (Fc fusion, UniProt P37173 24-159, looked up, not shown: a dimerising Fc or GST)
chain: IPPHVQKSVNNDMIVTDNNGAVKFPQLCKFCDVRFSTCDNQKSCMSNCSITSICEKPQEVCVAVWRKNDENITLETVCHDPKLPYHDFILEDAASPKCIMKEKKKPGETFFMCSCSSDECNDNIIFSEEYNTSNPD
notes: also called TGFβ R2; TGFBR2
B12: recombinant human TGF-beta RI/ALK-5 Fc chimera protein (R&D Systems, 3025-BR) (Fc fusion, UniProt P36897 24-125, looked up, not shown: a dimerising Fc or GST)
chain: AAALLPGATALQCFCHLCTKDNFTCVTDGLCFVSVTETTDKVIHNSMCIAEIDLIPRDRPFVCAPSSKTGSVTTTYCCNQDHCNKIELPTTVKSSPGLGPVE
notes: also called TGFβ RI; TGFBR1
B13: F847C.26F5 (antibody, human IgG4 S228P, kappa)
heavy: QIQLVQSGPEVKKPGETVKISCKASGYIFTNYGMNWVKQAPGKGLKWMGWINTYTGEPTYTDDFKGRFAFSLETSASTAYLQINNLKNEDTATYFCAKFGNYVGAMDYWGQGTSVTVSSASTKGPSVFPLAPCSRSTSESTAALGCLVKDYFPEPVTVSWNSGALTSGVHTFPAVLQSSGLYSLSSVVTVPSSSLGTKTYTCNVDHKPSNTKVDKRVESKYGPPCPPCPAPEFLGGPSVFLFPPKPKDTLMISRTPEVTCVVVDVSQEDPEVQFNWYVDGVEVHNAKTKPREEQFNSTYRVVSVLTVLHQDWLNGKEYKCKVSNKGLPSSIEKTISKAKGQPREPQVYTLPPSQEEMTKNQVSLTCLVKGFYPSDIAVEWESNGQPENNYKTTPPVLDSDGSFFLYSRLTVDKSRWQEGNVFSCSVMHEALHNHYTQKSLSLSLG
light: EIKMNQSPSSLSASLGDTITITCHASQNINVWLSWYQQKPGNIPKLLIYKASNLHTGVPSRFSGSGSGTGFTLTISSLQPEDIATYYCQQGQSYPYTFGGGTKLELKRTVAAPSVFIFPPSDEQLKSGTASVVCLLNNFYPREAKVQWKVDNALQSGNSQESVTEQDSKDSTYSLSSTLTLSKADYEKHKVYACEVTHQGLSSPVTKSFNRGEC
notes: also called 847.26F5
B14: F846C.1H12 (antibody, human IgG4 S228P, kappa, V domains shown)
VH: B5 VH with Y32F, M91I, D103A
VL: B5 VL with E17Q, N34S, T69S
notes: also called 846.1H12
B15: F849C.8H3 (antibody, human IgG4 S228P, kappa, V domains shown)
VH: QVTLKESGPGILQPSQTLSLTCSFSGFSLSTFGMGVGWIRQPSGKGLEWLAHIWWDDDKHYNPALKSRLTISKDTSKNQVFLRIANVDTADNATYYCARIDYGDYVGFAYWGQGTLVTVSA
VL: B6 VL with V3G, T5R, H31Y, T32S, F37Y, Y41F, P51L, E86D, N112K
B16: F846TC.7F10 (antibody, human IgG4 S228P, kappa, V domains shown)
VH: EVQLVESGGDLVKPGGSLKLSCAASGFTFSNYGLSWIRQTPDKRLEWVATISSGGSYTYYPDSVKGRFTISRDSAKNTLYLQMSSLKSEDTAMYYCARHAHYYGVSPYYFDYWGQGTCLTVSS
VL: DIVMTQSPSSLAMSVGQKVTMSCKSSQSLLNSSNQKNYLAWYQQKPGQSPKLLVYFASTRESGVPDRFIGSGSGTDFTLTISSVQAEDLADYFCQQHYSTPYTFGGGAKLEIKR
notes: also called 846T.7F10
B17: F846C.1H5 (antibody, human IgG4 S228P, kappa, V domains shown)
VH: EVQLLESGGGLVKPGGSLKLSCAASGFTFSSYAMSWVRQTPEKRLEWVASISSGGDTYYPDSVKGRFTISRDNARNILYLQMSSLRSEDTAMYYCASYGNSLFDYWGQGTTLTVSS
VL: DVVMTQTPLSLPVSLGDQASISCRSSQSLVHNSGNTYLHWYLQRPGQSPNLLIYKVSNRFSGVPDRFSGSGSGTDFTLKISRVAAEDLGVYFCSQSTHVPPTFGGGTKLEIKR
B18: 4A11.2B5 (antibody, human IgG4 S228P, kappa, V domains shown)
VH: QVQLQQSGPELVKPGASVKISCKASGYSFTNYYIHWVKQRPGQGLEWIGWIYPGSGNTNYNEKFKGKATLTADTSSSTTNMQLSSLTSEDSAVYYCSTAPGGFDVWGSGTTVTVSS
VL: DIVMTQAAFSNPVTLGTSASISCRSSKSLLHSDGITYLYWYLQRPGQSPQLLIYRMSNLASGVPDRFSGSGSGTDFTLRISRVEAEDVGVYYCAQMLEFPLTFGAGTKLELKR

What follows are binders tested against T1, human Galectin-3 (Gal3), full-length recombinant (human, UniProt P17931 2-250) (assay: blocking ELISA, Gal3 coated, biotin-Abeta42 oligomer).
T1 construct: treated here as one molecule; also called hGAL3; hGal3
T1 sequence (P17931 2-250 limits assumed): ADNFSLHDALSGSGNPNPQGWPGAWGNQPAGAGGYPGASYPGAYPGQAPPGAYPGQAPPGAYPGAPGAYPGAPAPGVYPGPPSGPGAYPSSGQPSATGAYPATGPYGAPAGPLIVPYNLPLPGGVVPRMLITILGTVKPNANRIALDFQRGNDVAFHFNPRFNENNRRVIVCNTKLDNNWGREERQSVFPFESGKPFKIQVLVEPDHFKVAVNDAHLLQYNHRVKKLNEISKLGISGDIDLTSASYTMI
In the case of B1, the “% blocking of Gal3-Abeta42 oligomer binding” value is reported as > 90%.
B2 was tested, and the “% blocking of Gal3-Abeta42 oligomer binding” value was < 26%.
In the case of B3, the “% blocking of Gal3-Abeta42 oligomer binding” value is reported as > 90%.
B4 was tested, and the “% blocking of Gal3-Abeta42 oligomer binding” value was < 26%.
In the case of B5, the “% blocking of Gal3-Abeta42 oligomer binding” value is reported as > 90%.
In the case of B6, the “% blocking of Gal3-Abeta42 oligomer binding” value is reported as > 90%.

The binders below were run against T1, human Galectin-3 (Gal3), full-length … (assay: blocking ELISA, Gal3 coated, biotin-TLR4).
In the case of B1, the “% blocking of Gal3-TLR4 binding” value is reported as > 90%.
B3 was tested, and the “% blocking of Gal3-TLR4 binding” value was > 90%.
With B4 the “% blocking of Gal3-TLR4 binding” value was > 90%.
With B5 the “% blocking of Gal3-TLR4 binding” value was > 90%.
B7 was tested, and the “% blocking of Gal3-TLR4 binding” value was > 90%.
With B8 the “% blocking of Gal3-TLR4 binding” value was > 90%.
With B9 the “% blocking of Gal3-TLR4 binding” value was > 90%.
With B10 the “% blocking of Gal3-TLR4 binding” value was > 90%.
In the case of B6, the “% blocking of Gal3-TLR4 binding” value is reported as > 90%.

Each binder was assayed against T1, human Galectin-3 (Gal3), full-length … (assay: SPR (Carterra LSA, HC30M chip with Protein A/G, receptor-Fc captured, Gal3 0-128 nM as analyte, 25 °C)).
Method: Briefly, kinetics experiment was performed on Caterra LSA at 25° C. A HC30M chip was immobilized with recombinant Protein A/G.
The complex was allowed to associate and dissociate for 300 s and 240 s, respectively. Eight cycles of kinetics were done sequentially for the dilution series.
With B11 the Kd was 725 nM, the koff was 0.0837 s⁻¹ and the kon was 116000 M⁻¹ s⁻¹.
In the case of B12, the Kd is reported as 314 nM, the koff is reported as 0.0351 s⁻¹ and the kon is reported as 112000 M⁻¹ s⁻¹.

These binders were tested against T1, human Galectin-3 (Gal3), full-length … (assay: blocking ELISA, Gal3 coated, TREM2-His).
Method: The plate was incubated for an hour at room temperature with gentle rocking. Thereafter, the plate was washed three times with PBST. Anti-6× His tag antibody-HRP (Abcam, ab1269) was then added to the wells at 1:3000 dilution in 2% BSA in PBST. The plate was incubated at room temperature for an hour with gentle rocking and then washed three times with PBST.
For B3, the “% blocking of Gal3-TREM2 binding” value was > 90%.
With B4 the “% blocking of Gal3-TREM2 binding” value was > 90%.
For B5, the “% blocking of Gal3-TREM2 binding” value was > 90%.
B7 was tested, and the “% blocking of Gal3-TREM2 binding” value was > 90%.
For B8, the “% blocking of Gal3-TREM2 binding” value was > 90%.
For B9, the “% blocking of Gal3-TREM2 binding” value was > 90%.
For B10, the “% blocking of Gal3-TREM2 binding” value was > 90%.
In the case of B13, the “% blocking of Gal3-TREM2 binding” value is reported as < 47%.
With B6 the “% blocking of Gal3-TREM2 binding” value was > 90%.

These binders were tested against T1, human Galectin-3 (Gal3), full-length … (assay: blocking ELISA, Gal3 coated, biotin-APP695).
B1 was tested, and the “% blocking of Gal3-APP695 binding” value was > 90%.
B2 was tested, and the “% blocking of Gal3-APP695 binding” value was > 83%.
B3 was tested, and the “% blocking of Gal3-APP695 binding” value was > 90%.
With B5 the “% blocking of Gal3-APP695 binding” value was > 90%.
B7 was tested, and the “% blocking of Gal3-APP695 binding” value was > 90%.
For B8, the “% blocking of Gal3-APP695 binding” value was > 90%.
B9 was tested, and the “% blocking of Gal3-APP695 binding” value was > 90%.
In the case of B14, the “% blocking of Gal3-APP695 binding” value is reported as > 90%.
In the case of B10, the “% blocking of Gal3-APP695 binding” value is reported as > 90%.
B13 was tested, and the “% blocking of Gal3-APP695 binding” value was 87%.
With B6 the “% blocking of Gal3-APP695 binding” value was > 90%.
In the case of B15, the “% blocking of Gal3-APP695 binding” value is reported as > 90%.

What follows are binders tested against T1, human Galectin-3 (Gal3), full-length … (assay: blocking ELISA, Gal3 coated, biotin-Abeta42 peptide).
B1 was tested, and the “% blocking of Gal3-Abeta42 peptide binding” value was > 90%.
With B3 the “% blocking of Gal3-Abeta42 peptide binding” value was > 90%.
In the case of B4, the “% blocking of Gal3-Abeta42 peptide binding” value is reported as < 46%.
B5 was tested, and the “% blocking of Gal3-Abeta42 peptide binding” value was > 90%.
For B7, the “% blocking of Gal3-Abeta42 peptide binding” value was > 90%.
For B8, the “% blocking of Gal3-Abeta42 peptide binding” value was > 90%.
B9 was tested, and the “% blocking of Gal3-Abeta42 peptide binding” value was > 90%.
B10 was tested, and the “% blocking of Gal3-Abeta42 peptide binding” value was > 90%.
For B6, the “% blocking of Gal3-Abeta42 peptide binding” value was > 90%.

What follows are binders tested against T1, human Galectin-3 (Gal3), full-length … (assay: not stated. Exponent is printed without a minus sign; value taken as a negative power of ten because the column is a KD in M).
For B1, the Kd was 3.26 nM.
Work on B2 yielded a Kd of 21.5 nM.
B16 showed a Kd of 1.4 nM.
Binder B5 has a Kd of 1.63 nM.
Work on B7 yielded a Kd of 1.72 nM.
B8 showed a Kd of 0.927 nM.
For B9, the Kd was 5.74 nM.
In the case of B14, the Kd is reported as 0.622 nM.
B10 showed a Kd of 3.75 nM.
With B17 the Kd was 3.41 nM.
Work on B13 yielded a Kd of 20.9 nM.
B6 showed a Kd of 0.556 nM.

Each binder was assayed against T1, human Galectin-3 (Gal3), full-length … (assay: blocking ELISA, Gal3 coated, biotin-Tau aggregates).
Method: The plate was incubated for an hour at room temperature with gentle rocking. Thereafter, the plate was washed three times with PBST. […] The plate was incubated at room temperature for an hour with gentle rocking and then washed three times with PBST.
With B5 the “% blocking of Gal3-Tau aggregates binding” value was > 90%.
B9 was tested, and the “% blocking of Gal3-Tau aggregates binding” value was > 90%.

These binders were tested against T1, human Galectin-3 (Gal3), full-length … (assay: cell-based or functional assay).
In the case of B3, the “decrease in TGFβ induction of ColA1 mRNA in LX2 cells (qRT-PCR)” value is reported as 85%.
For B18, the “decrease in TGFβ induction of ColA1 mRNA in LX2 cells (qRT-PCR)” value was 58%.
